Measured values: the nanobody polyreactivity screen of Harvey et al. (2022)

Test: yeast display, Sf9 membrane polyspecificity reagent, FACS + sequencing; frameworks hold sequencing errors
Outline: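 Nanobodies came from a synthetic yeast display library in Saccharomyces cerevisiae BJ5465, induced with galactose for 36–48 hours and stained for 1 hour at 4 °C with 10% biotinylated, detergent-solubilized Sf9 membrane reagent. Cells were enriched on streptavidin microbeads and then FACS-sorted, with low and high (top ~1%) gates set on anti-HA fluorescence for expression and streptavidin fluorescence for reagent binding. Each polyreactivity label reflects the gate a clone came from. Genes were amplified by colony PCR, sequenced by MiSeq 2 × 250 and filtered by CDR length.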

Sequence	polyreactivity (PSR sort gate)
QVQLVESGGGLFQAGGSLRLSCAASGRIFHWYAMGWYRQAPGKERELHAAITDGDSTYYADSVKGRFTISRDNAKNTVYLQMNSLKPEDTAVYYCAADVVYSPYVFGGTRYYKYDYWGQVTQVTVSS	low polyreactivity
QVQLVESGGGLFQAGGSLRLSCAASGRIFSDYAMGWYRQAPGKERELVATITSGDSTNYADSVKGRFTISRDNAKNTVYLQMNSLKPEDTAVYYCNADRFADYDYWGQGTQVTVSS	low polyreactivity
QVQLVESGGGLFQAGGSLRLSCAASGRTFDDYAMGWYRQAPGKERELVAGITDNGGGTNYADSVKGRFTISRDNAKNTVYLQMNSLKQEDTAVYYCAAGETFEMYYWGQVTQVTVSS	low polyreactivity
QVQLVESGGGLFQAGGSLRLSCAASGRTFGIYAMRWYRQAPGKERELVATISWRGGSTYYADSVKGRFTISRDNAKNTVDLQMNSLKPEDTAVYYCAAVLTALSPDFEYEYWGQGTQVTVSS	low polyreactivity
QVQLVESGGGLFQAGGSLRLSCAASGRTFHANAMGWYRQAPGKERELVARINWSGTSTYYADSVKGRFTISRDNAKNTVYLQMNSLKPEDTAVYYCAAGWIRQYSSLYDYWGQGTQVTVSS	high polyreactivity
QVQLVESGGGLFQAGGSLRLSCAASGRTFLYYTMGWYRQAPGKERELVAAITSGTSTNYADSVKGRFTISRDNAKNTVYLQMNSLKPEDTAVYYCNKRAARSLNGYPLYGYYYWGQGTQVTVSS	low polyreactivity
QVQLVESGGGLFQAGGSLRLSCAASGRTFRYYVMGWYRQAPGKERELVAAISKSGASTYYADSVKGRFTISRDNAKYTVYSQMNSLKPEDTAVYYCAAGGVYSIYRTSRVGYDYWGQGTQVTVSS	high polyreactivity
QVQLVESGGGLFQAGGSLRLSCAASGRTFSRYVMGWYRQAPGKERELVAAISRTGGRKYYADSVKGRFTITRDNAKNTVYLQMNSLKPEDTAVYYCNAGTVLISTYDYWGQGTQVTVSS	high polyreactivity
QVQLVESGGGLFQAGGSLRLSCAASGRTIYLNAMGWYRQAPLKERELVAAITSSGGRTYYADSVKGRFTISRDNAKNSVYLQMNSLKPEDTAVYYCAAVVSSKPSFYWGQGSQVTVSS	low polyreactivity
QVQLVESGGGLFQAGGSLRLSCAASGSIFDSYAMGWYRQAPGKDREVVAAISSDCGSTYYADSVKGRFTISRDNAKNTVYLQMNSLKPEDTAVYFCAVEDYSSPYDFDSWGQGTQVTVSS	low polyreactivity
QVQLVESGGGLFQAGGSLRLSCAASGSIFRYYVMGWYRQAPGKEMELVAAISTGDRTNYADSVKGRFTISRDNAKNTVYLQMNSLKPEDTAVYYCNADYVVGWARLEFNYWGQGTQVTVSS	low polyreactivity
QVQLVESGGGLFQAGGSLRLSCAASGSTFVANAMGWYRQAPGKERELVAAISSSGGSTYYADSVKGRFTISRDIAKNTVYLQMNSLKHDDTAVYYCNARSISRKKGYPPQRRDGYWGQGTQVTVSS	high polyreactivity
QVQLVESGGGLFQAGGSLRLSCAASGSTFYRYTMGWYRQAPGKERELVASISRSGGSTYYADSVKGRFTISRDNAKNTVYLQMNSLKPEDTAVYYCAAKAQGKYYQYNYWGQGTQVTVSS	high polyreactivity
QVQLVESGGGLFQAGGSLRLSCAASGSTFYTNAMGWYRQAPGKERELVAAISWSGGSTYYADSVKGRFTIARDNAKNPVYLQLNSLKPEDTAVYYCDVSGTHFRYDYWGQGTQVTVSS	high polyreactivity
QVQLVESGGGLFQAGGSLRLSCAASGTTFAYYTMGWYIQAPGTERELVAAITSGGRTSYADSVKGRFTISRDNAKNTVYLLMNSLKPEDTAFFSCAKCRKPGYYYWGQGNQVTVSS	high polyreactivity
QVQLVESGGGLFQAGGSLRLSCAASGYIFRSYAMGGYRQAPGKERELVAAITRSGGSTYYADSVKGRFTISRDNAKNTVYFQMNSLKPEDTAVYYCAVLPRGSNGMDYCGQGTQVTVSS	low polyreactivity
QVQLVESGGGLFQAGGSLRLSCAATGRIFYSNAMGWYRQAPGKERELVAAINSRGGRTYYADSLKGRFTISRDNAKNTVYLQMNSLKPEDTAVYYCAAPTGPKGYYSDRGDSWGQGTQVTVSS	high polyreactivity
QVQLVESGGGLFQAGGSLRLSCAATGRTFDPYAMGWYRQAPGKERELVAVISISDGSTYYADSVKGRFTISRDNAKNTVYLQMHSLKPEDTAVYYCAAYVFYDYWTLEYWGQGTQVTVSS	high polyreactivity
QVQLVESGGGLFQAGGSLRLSCAATVSNYRYYAMGWYRQAPGKETELVAYITSSGGSTYYADSVKGLFTISRDYAKNTVYLQMNSLKPEDTAVYYCAALSWLYVYPFTEYDYWGQGTQVTVSS	low polyreactivity
QVQLVESGGGLFQAGGSLRLSCDPSGSIFEYYAMGWYRQAPGKERELVAAITQSGGSTYYADSVKGRFHKFTRQCEEYRLFPDEQPETGRYRGISLAADAECYQNDYALDYWGQGTQVTVSS	low polyreactivity
QVQLVESGGGLFQAGGSLRLTCAASGFTFSYNAMGWYRQAPGKERELVAAISSSGGSTYYADSVKVRFTISRENAKNTVYLPMNSLKPVDTAVYYCAVPYLTLYGRTYDYWGQGTLVTVSS	high polyreactivity
QVQLVESGGGLFQAGGTLRLSCDASGLIFLSYGMAWYRQAPGKERELVAAISSGGSTYYADSVKGRFTISRDNAKNTDYLQMNSLKPEDTAVYYCASEQPIEFDHWGQGTQVTVSS	low polyreactivity
QVQLVESGGGLFQAGRSLRLSCAASGRIFVANAMGWYRQAPGIERELVAAISGRGSRTYYADSVKGRFTISRDNAKNTVYLQMNSLKPEDTAVYYCAARYRYDGRYDYWGQGTQVTVSS	high polyreactivity
QVQLVESGGGLFQAVGSLRLSCAASGFIFYDYAMGWYRQAPGKEMELVAAISKRGGSTYYADSVKGRFTISRDNAKNTVYLQMNSLKPEDTADYYCAAALWGWRYYYWGQGTQVTVSS	high polyreactivity
QVQLVESGGGLFQEGGSLRLSCAASGRIFGPYDMGWYRQAPGKERELVAAISQRGGTTYYADSVKGRFTISRDNAKNTVYLQMNSLKPEVTAVYYCAPKTYGWGQGTQVNVSS	high polyreactivity
QVQLVESGGGLFQEGGSLRLSCAASGRTFKYYAMGWYRQAPGKERELVASISQSGTSTYYADSVKGRFTISRDNAKSTVYLQLNSLKPEDTAVYFCGARTRYRYYSYGYWGQATQVTVSS	high polyreactivity
QVQLVESGGGLFQSGGSLRLSCAASGITFRYYAMGWYRQAPGKERELVAAISSGGSTNYADSVKGRFTISRDNAKNSVYLQINSLKPEDTAVYYCYRRVYSRRYYGYYYWGQGTQVTVSS	high polyreactivity
QVQLVESGGGLGEAGGSLRLSCAASGSTFGYYAMGWYRQAAGKEREFVAAITGNSDNTYYADSVKGRFTISRDNATNTVYLQMNSLKPEDTAVYYCNDALDPFRFEYWRQGTQVTVSS	low polyreactivity
QVQLVESGGGLGHAGGSLRLSCAASGRIYGRNAMGWNRKAQGKERELVAAINSGVSTYYADSVKGRFTISRDNAKNTFYLQMNSLKPEDTAVYYCAKAPQRRYYDFDYWGQGTQVTVSS	low polyreactivity
QVQLVESGGGLGQAGGSLRLSCAASGFNFYGYAMGWYRQAPGKERELVAAISSGGGRTYYADSVKGLFTISRDNAKNTVYLQMNSLKPEDTAVYYCAAKVYFYTGGGGEDYWGQGTKVTVSS	low polyreactivity
